Reference: PMC12290929, “Analytical and Structural Evaluation of Recombinant Human Serum Albumin and Fragment F8 for Aptamer-Based Urinary Biomarker Detection”

Assays:
rHSA (rice) = rHSA (rice) (Homo sapiens, UniProt P02768 25-609); experiment: graphene oxide fluorescence recovery (Cy5 aptasensor); GO-quenched aptamer; protein 0.37-1500 ug/mL; sigmoidal, R2 > 0.99; lower fluorescence than E. coli proteins; PBS pH 7.4, graphene oxide (15 uL of 5 mg/mL) + Cy5-H8 (15 uL of 5 uM) preincubated 5 min at room temperature, 200 uL final volume, 30 min with protein in the dark, ex 630/em 670 nm; conditions: protein: commercial; label: 5'-Cy5
Sequence of rHSA (rice) (P02768 25-609): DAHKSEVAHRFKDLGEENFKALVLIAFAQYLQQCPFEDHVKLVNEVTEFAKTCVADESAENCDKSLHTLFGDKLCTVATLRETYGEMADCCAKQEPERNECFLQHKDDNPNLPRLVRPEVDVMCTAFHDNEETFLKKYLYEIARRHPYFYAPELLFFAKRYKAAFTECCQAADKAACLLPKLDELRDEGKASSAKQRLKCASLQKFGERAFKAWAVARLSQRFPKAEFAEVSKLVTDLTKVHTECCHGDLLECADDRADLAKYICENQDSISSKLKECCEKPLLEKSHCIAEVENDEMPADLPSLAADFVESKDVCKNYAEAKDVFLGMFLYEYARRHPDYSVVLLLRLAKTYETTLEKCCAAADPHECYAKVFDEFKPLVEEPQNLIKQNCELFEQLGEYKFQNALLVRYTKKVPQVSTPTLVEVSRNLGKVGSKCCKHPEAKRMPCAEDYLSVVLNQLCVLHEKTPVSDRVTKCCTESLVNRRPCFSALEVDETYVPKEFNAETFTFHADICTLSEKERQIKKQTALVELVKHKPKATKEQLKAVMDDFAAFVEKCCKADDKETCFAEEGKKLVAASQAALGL

rF8 (HSA fragment F8) = rF8 (HSA fragment F8) (Homo sapiens, UniProt P02768); experiment: graphene oxide fluorescence recovery (Cy5 aptasensor); GO-quenched aptamer; protein 0.37-1500 ug/mL; sigmoidal, R2 > 0.99; response comparable to full-length rHSA; PBS pH 7.4, graphene oxide (15 uL of 5 mg/mL) + Cy5-H8 (15 uL of 5 uM) preincubated 5 min at room temperature, 200 uL final volume, 30 min with protein in the dark, ex 630/em 670 nm; conditions: protein: recombinant; tags: His-tag; label: 5'-Cy5
Sequence of rF8 (HSA fragment F8) (P02768 520-609): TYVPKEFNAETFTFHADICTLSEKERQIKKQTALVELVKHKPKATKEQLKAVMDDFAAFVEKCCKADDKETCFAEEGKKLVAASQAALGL

rHSA (E. coli) = rHSA (E. coli) (Homo sapiens, UniProt P02768 25-609); experiment: graphene oxide fluorescence recovery (Cy5 aptasensor); GO-quenched aptamer; protein 0.37-1500 ug/mL; sigmoidal, R2 > 0.99; PBS pH 7.4, graphene oxide (15 uL of 5 mg/mL) + Cy5-H8 (15 uL of 5 uM) preincubated 5 min at room temperature, 200 uL final volume, 30 min with protein in the dark, ex 630/em 670 nm; conditions: protein: recombinant; tags: His-tag; label: 5'-Cy5
Sequence of rHSA (E. coli) (P02768 25-609): as the sequence (P02768 25-609) above

Measured: binding result

B1: H8 aptamer (ssDNA)
DNA: ATACCAGCTTATTCAATTCCCCCGGCTTTGGTTTAGAGGTAGTTGCTCATTACTTGTACGCTCCGGATGAGATAGTAAGTGCAATCT
binds: all assays above
